Laboratory results published in the Immune Epitope Database (IEDB).

Columns and labels:
HLA-A*02:01 = assay: IEDB peptide-MHC binding, purified MHC/direct/fluorescence; filed as Kd, often an IC50 or EC50 that approximates it; ≥ and ≤ were set here for values at or beyond the usual limits of such assays
HLA-C*03:03 = assay: as above
HLA-A*32:07 = assay: IEDB peptide-MHC binding, purified MHC/competitive/fluorescence; filed as Kd, often an IC50 or EC50 that approximates it; ≥ and ≤ were set here for values at or beyond the usual limits of such assays; conditions: source organism: Mammarenavirus juninense
HLA-A*32:15 = assay: as above
HLA-B*15:42 = assay: as above
HLA-B*27:20 = assay: as above; conditions: source organism: Mammarenavirus juninense
HLA-B*45:06 = assay: as above
HLA-A*01:01 = assay: IEDB peptide-MHC binding, purified MHC/direct/fluorescence; filed as Kd, often an IC50 or EC50 that approximates it; ≥ and ≤ were set here for values at or beyond the usual limits of such assays; conditions: source organism: Mycobacterium tuberculosis
HLA-A*03:01 = assay: as above; conditions: source organism: Mycobacterium tuberculosis
HLA-A*11:01 = assay: as above; conditions: source organism: Mycobacterium tuberculosis
HLA-A*26:01 = assay: as above
HLA-A*31:01 = assay: as above; conditions: source organism: Mycobacterium tuberculosis
HLA-A*69:01 = assay: as above; conditions: source organism: Mycobacterium tuberculosis
HLA-B*08:01 = assay: as above
HLA-B*08:02 = assay: as above
HLA-B*15:01 [1] = assay: as above; conditions: source organism: Mycobacterium tuberculosis
HLA-B*15:17 = assay: as above; conditions: source organism: Mycobacterium tuberculosis
HLA-B*18:01 = assay: as above; conditions: source organism: Mycobacterium tuberculosis
HLA-B*27:05 = assay: as above; conditions: source organism: Mycobacterium tuberculosis
HLA-B*38:01 = assay: as above
HLA-B*40:01 = assay: as above; conditions: source organism: Mycobacterium tuberculosis
HLA-B*46:01 [2] = assay: as above; conditions: source organism: Mycobacterium tuberculosis
HLA-B*48:01 = assay: as above; conditions: source organism: Mycobacterium tuberculosis
HLA-B*51:01 = assay: as above; conditions: source organism: Mycobacterium tuberculosis
HLA-B*57:01 = assay: as above; conditions: source organism: Mycobacterium tuberculosis
HLA-B*58:01 = assay: as above; conditions: source organism: Mycobacterium tuberculosis
HLA-A*30:01 = assay: as above; conditions: source organism: Mycobacterium tuberculosis str. Haarlem
HLA-B*15:01 [3] = assay: IEDB peptide-MHC binding, purified MHC/competitive/fluorescence; filed as Kd, often an IC50 or EC50 that approximates it; ≥ and ≤ were set here for values at or beyond the usual limits of such assays
HLA-B*15:09 = assay: as above; conditions: source organism: Mycobacterium tuberculosis C
HLA-B*39:01 = assay: as above; conditions: source organism: Mycobacterium tuberculosis C
HLA-B*83:01 = assay: as above
HLA-C*08:02 = assay: IEDB peptide-MHC binding, purified MHC/direct/fluorescence; filed as Kd, often an IC50 or EC50 that approximates it; ≥ and ≤ were set here for values at or beyond the usual limits of such assays; conditions: source organism: Pan troglodytes
HLA-C*14:02 [4] = assay: IEDB peptide-MHC binding, purified MHC/competitive/fluorescence; filed as Kd, often an IC50 or EC50 that approximates it; ≥ and ≤ were set here for values at or beyond the usual limits of such assays
HLA-C*06:02 = assay: IEDB peptide-MHC binding, purified MHC/direct/fluorescence; filed as Kd, often an IC50 or EC50 that approximates it; ≥ and ≤ were set here for values at or beyond the usual limits of such assays
HLA-C*12:03 = assay: as above; conditions: source organism: Brucella abortus S19
HLA-C*15:02 = assay: as above
HLA-B*15:02 = assay: IEDB peptide-MHC binding, purified MHC/competitive/fluorescence; filed as Kd, often an IC50 or EC50 that approximates it; ≥ and ≤ were set here for values at or beyond the usual limits of such assays; conditions: source organism: Brucella abortus S19
HLA-B*46:01 [5] = assay: as above; conditions: source organism: Brucella abortus S19
HLA-C*14:02 [6] = assay: IEDB peptide-MHC binding, purified MHC/direct/fluorescence; filed as Kd, often an IC50 or EC50 that approximates it; ≥ and ≤ were set here for values at or beyond the usual limits of such assays; conditions: source organism: Campylobacter jejuni
[7] = source organism: Mammarenavirus juninense
[8] = source organism: Mycobacterium tuberculosis
[9] = source organism: Mycobacterium tuberculosis F11
[10] = source organism: Mycobacterium tuberculosis str. Haarlem
[11] = source organism: Mycobacterium tuberculosis variant bovis BCG str. Pasteur 1173P2
[12] = source organism: Pan troglodytes
[13] = source organism: Brucella abortus S19
[14] = source organism: Campylobacter jejuni

With KLMDVVYSI the Kd (HLA-A*02:01; [7]) was 0.0009 µM, the Kd (HLA-C*03:03; [7]) was no less than 20 µM and the Kd (HLA-A*32:07) was 0.0021 µM. It also gave a Kd (HLA-A*32:15; [7]) of 0.0556 µM, a Kd (HLA-B*15:42; [7]) of no less than 5 µM and a Kd (HLA-B*27:20) of 0.0179 µM. The Kd (HLA-B*45:06; [7]) was no less than 5 µM.
In the case of KPKLARGEL, the Kd (HLA-A*01:01) is reported as no less than 20 µM, the Kd (HLA-A*02:01; [8]) is reported as no less than 20 µM and the Kd (HLA-A*03:01) is reported as no less than 20 µM. The Kd (HLA-A*11:01) was no less than 20 µM, the Kd (HLA-A*26:01; [9]) was no less than 20 µM and the Kd (HLA-A*31:01) was no less than 20 µM. The Kd (HLA-A*69:01) was no less than 20 µM, the Kd (HLA-B*08:01; [9]) was 0.19 µM and the Kd (HLA-B*08:02; [9]) was no less than 5 µM. It also gave a Kd (HLA-B*15:01 [1]) of no less than 20 µM, a Kd (HLA-B*15:17) of no less than 20 µM and a Kd (HLA-B*18:01) of 2.57 µM. The Kd (HLA-B*27:05) was no less than 20 µM, the Kd (HLA-B*38:01; [9]) was no less than 20 µM and the Kd (HLA-B*40:01) was 1.16 µM. For the same sequence, the Kd (HLA-B*46:01 [2]) was no less than 20 µM, the Kd (HLA-B*48:01) was no less than 20 µM and the Kd (HLA-B*51:01) was no less than 20 µM. For the same sequence, the Kd (HLA-B*57:01) was no less than 20 µM and the Kd (HLA-B*58:01) was no less than 20 µM.
Sequence RPKPDYSAM has a Kd (HLA-A*01:01) of no less than 20 µM, a Kd (HLA-A*02:01; [8]) of no less than 20 µM and a Kd (HLA-A*03:01) of no less than 20 µM. The Kd (HLA-A*11:01) was no less than 20 µM, the Kd (HLA-A*26:01; [10]) was no less than 20 µM and the Kd (HLA-A*30:01) was 0.123 µM. It also gave a Kd (HLA-A*31:01) of no less than 20 µM, a Kd (HLA-A*69:01) of no less than 20 µM and a Kd (HLA-B*08:01; [10]) of 0.08 µM. It also gave a Kd (HLA-B*08:02; [10]) of no less than 20 µM, a Kd (HLA-B*18:01) of no less than 20 µM and a Kd (HLA-B*27:05) of no less than 20 µM. For the same sequence, the Kd (HLA-B*38:01; [10]) was no less than 20 µM, the Kd (HLA-B*40:01) was no less than 20 µM and the Kd (HLA-B*46:01 [2]) was no less than 20 µM. For the same sequence, the Kd (HLA-B*48:01) was no less than 20 µM, the Kd (HLA-B*51:01) was no less than 20 µM and the Kd (HLA-B*57:01) was no less than 20 µM. It also gave a Kd (HLA-B*58:01) of no less than 20 µM, a Kd (HLA-B*15:01 [3]; source organism: Mycobacterium tuberculosis C) of no less than 20 µM and a Kd (HLA-B*15:09) of no less than 20 µM. For the same sequence, the Kd (HLA-B*39:01) was 1.96 µM.
Work on RPRVAQLTF yielded a Kd (HLA-A*01:01) of 4.16 µM, a Kd (HLA-A*02:01; [8]) of no less than 20 µM and a Kd (HLA-A*03:01) of no less than 20 µM. The Kd (HLA-A*11:01) was no less than 20 µM, the Kd (HLA-A*31:01) was no less than 20 µM and the Kd (HLA-A*69:01) was no less than 20 µM. It also gave a Kd (HLA-B*08:01; [10]) of 0.267 µM, a Kd (HLA-B*08:02; [10]) of 3.86 µM and a Kd (HLA-B*15:17) of 0.169 µM. The Kd (HLA-B*18:01) was 0.104 µM, the Kd (HLA-B*27:05) was no less than 20 µM and the Kd (HLA-B*38:01; [10]) was no less than 20 µM. It also gave a Kd (HLA-B*40:01) of no less than 20 µM, a Kd (HLA-B*46:01 [2]) of no less than 20 µM and a Kd (HLA-B*48:01) of no less than 20 µM. For the same sequence, the Kd (HLA-B*51:01) was no less than 20 µM, the Kd (HLA-B*57:01) was 0.864 µM and the Kd (HLA-B*58:01) was no less than 20 µM. For the same sequence, the Kd (HLA-B*15:01 [3]; [11]) was no less than 20 µM, the Kd (HLA-B*15:42; [11]) was no less than 5 µM and the Kd (HLA-B*45:06; [11]) was no less than 5 µM. For the same sequence, the Kd (HLA-B*83:01; [11]) was 2.01 µM.
VMPPRTLLL was tested, and the Kd (HLA-C*03:03; [12]) was no less than 20 µM, the Kd (HLA-C*08:02) was no less than 20 µM and the Kd (HLA-B*15:42; [12]) was no less than 5 µM. It also gave a Kd (HLA-B*45:06; [12]) of no less than 5 µM, a Kd (HLA-B*83:01; [12]) of no less than 5 µM and a Kd (HLA-C*14:02 [4]; [12]) of 0.0768 µM.
YMRERLSDF showed a Kd (HLA-C*06:02; [13]) of 0.112 µM, a Kd (HLA-C*12:03) of 0.094 µM and a Kd (HLA-C*15:02; [13]) of no less than 20 µM. The Kd (HLA-B*15:02) was 0.235 µM, the Kd (HLA-B*15:42; [13]) was no less than 5 µM and the Kd (HLA-B*45:06; [13]) was no less than 5 µM. For the same sequence, the Kd (HLA-B*46:01 [5]) was 0.0306 µM, the Kd (HLA-B*83:01; [13]) was no less than 5 µM and the Kd (HLA-C*14:02 [4]; [13]) was 0.018 µM.
YTKKYLLSF was tested, and the Kd (HLA-A*26:01; source organism: Campylobacter jejuni subsp. jejuni 81116) was 0.002 µM, the Kd (HLA-C*06:02; [14]) was no less than 20 µM and the Kd (HLA-C*14:02 [6]) was 2.05 µM. For the same sequence, the Kd (HLA-C*15:02; [14]) was 5 µM, the Kd (HLA-A*32:15; [14]) was 0.235 µM and the Kd (HLA-B*15:42; [14]) was no less than 5 µM. The Kd (HLA-B*45:06; [14]) was no less than 5 µM and the Kd (HLA-B*83:01; [14]) was no less than 5 µM.
